Experimental data from patent US20250144178A1 (KANAPH THERAPEUTICS, published 2025).

T1: recombinant human FAP (human, UniProt Q12884 26-760)
T1 construct: Soluble analyte in SPR; The description calls FAP a homodimer; also called rhFAP
T1 sequence (looked up): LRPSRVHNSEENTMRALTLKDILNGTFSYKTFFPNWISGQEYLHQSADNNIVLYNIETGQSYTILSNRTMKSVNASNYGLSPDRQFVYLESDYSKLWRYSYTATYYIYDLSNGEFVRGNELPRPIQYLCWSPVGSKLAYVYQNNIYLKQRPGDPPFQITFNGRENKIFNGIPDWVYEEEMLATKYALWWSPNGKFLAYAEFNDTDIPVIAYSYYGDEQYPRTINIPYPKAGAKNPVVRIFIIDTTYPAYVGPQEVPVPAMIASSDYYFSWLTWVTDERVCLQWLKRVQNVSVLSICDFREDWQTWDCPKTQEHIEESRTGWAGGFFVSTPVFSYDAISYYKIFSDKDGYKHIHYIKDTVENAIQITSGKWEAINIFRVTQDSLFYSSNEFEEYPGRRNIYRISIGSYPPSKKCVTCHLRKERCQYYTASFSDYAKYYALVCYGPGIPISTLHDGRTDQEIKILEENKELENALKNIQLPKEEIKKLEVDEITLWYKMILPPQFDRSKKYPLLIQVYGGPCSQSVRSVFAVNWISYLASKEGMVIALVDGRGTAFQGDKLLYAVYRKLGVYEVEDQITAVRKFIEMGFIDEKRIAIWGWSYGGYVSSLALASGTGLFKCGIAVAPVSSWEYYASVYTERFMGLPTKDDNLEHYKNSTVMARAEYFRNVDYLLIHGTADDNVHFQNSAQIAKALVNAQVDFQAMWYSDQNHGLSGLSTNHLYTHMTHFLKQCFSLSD


Molecular target: T1, recombinant human FAP
Assay: SPR, captured by anti-human IgG (Fc), human FAP analyte, 1:1 binding model
Experimental: Bindings of T1.04, T1.05, T1.06, T1.07, T1.08, T1.09, T1.10 and T1.11 to recombinant human […] were identified by surface plasmon resonance (SPR). The surface of the CM5 chip was activated with a 1:1 mixture of […] (N-hydroxysuccinimide) and […] (1-Ethyl-3-(3-dimethylaminopropyl) carbodiimide), and 25 μg/ml of anti-human IgG (Fc) antibody was immobilized for 400 seconds at a rate of 10 μl/min. The remaining active ester groups were blocked with 1 M ethanolamine.
Specifically, human proteins T1.04, T1.05, T1.06, T1.07, T1.08, T1.09, T1.10 and T1.11 were diluted to 1 μg/ml, 1 μg/ml, 1 μg/ml, 1 μg/ml, 0.5 μg/ml, 0.5 μg/ml, 0.5 μg/ml, and 1 μg/ml, respectively, and reacted on a CM5 chip immobilized with an anti-human IgG (Fc) antibody. The recombinant human FAP was diluted to 25 nM or 50 nM in 1×HBS-EP+buffer solution and diluted by serial dilution. The diluted recombinant human FAP was reacted at a rate of 30 μl/min. The association and dissociation times were 180 seconds and 400 seconds, respectively. After the dissociation, stabilization was performed for 60 seconds, and then a regeneration was performed for 30 seconds with a 10 mM glycine pH 1.5 solution at a rate of 30 μl/min.

Binder | Kd | koff | kon
T1.08 (anti-hu FAP/hu IL-12, hu IgG1 DANG (2 + 1, LC scFv)) (bispecific antibody, Anti-FAP scFv at the C-terminus of the light chain; knob-in-hole with the IL-12 arm) heavy: QVQLVQSGAEVKKPGASVKVSCKTSRYTFTEYTIHWVRQAPGQRLEWIGGINPNNGIPNYNQKFKGRVTITVDTSASTAYMELSSLRSEDTAVYYCARRRIAYGYDEGHAMDYWGQGTLVTVSSASTKGPSVFPLAPSSKSTSGGTAALGCLVKDYFPEPVTVSWNSGALTSGVHTFPAVLQSSGLYSLSSVVTVPSSSLGTQTYICNVNHKPSNTKVDKKVEPKSCDKTHTCPPCPAPELLGGPSVFLFPPKPKDTLMISRTPEVTCVVVAVSHEDPEVKFNWYVDGVEVHNAKTKPREEQYGSTYRVVSVLTVLHQDWLNGKEYKCKVSNKALPAPIEKTISKAKGQPREPQVYTLPPSRDELTKNQVSLWCLVKGFYPSDIAVEWESNGQPENNYKTTPPVLDSDGSFFLYSKLTVDKSRWQQGNVFSCSVMHEALHNHYTQKSLSLSPGK light: not shown not shown | 0.177 nM | 7.87e-05 s⁻¹ | 446000 M⁻¹ s⁻¹
T1.09 (anti-hu FAP/hu IL-12 mut2, hu IgG1 DANG (2 + 1, LC scFv)) (bispecific antibody, Anti-FAP scFv at the C-terminus of the light chain; knob-in-hole with the IL-12 mut2 arm) heavy: QVQLVQSGAEVKKPGASVKVSCKTSRYTFTEYTIHWVRQAPGQRLEWIGGINPNNGIPNYNQKFKGRVTITVDTSASTAYMELSSLRSEDTAVYYCARRRIAYGYDEGHAMDYWGQGTLVTVSSASTKGPSVFPLAPSSKSTSGGTAALGCLVKDYFPEPVTVSWNSGALTSGVHTFPAVLQSSGLYSLSSVVTVPSSSLGTQTYICNVNHKPSNTKVDKKVEPKSCDKTHTCPPCPAPELLGGPSVFLFPPKPKDTLMISRTPEVTCVVVAVSHEDPEVKFNWYVDGVEVHNAKTKPREEQYGSTYRVVSVLTVLHQDWLNGKEYKCKVSNKALPAPIEKTISKAKGQPREPQVYTLPPSRDELTKNQVSLWCLVKGFYPSDIAVEWESNGQPENNYKTTPPVLDSDGSFFLYSKLTVDKSRWQQGNVFSCSVMHEALHNHYTQKSLSLSPGK light: not shown not shown | 0.214 nM | 0.000111 s⁻¹ | 517000 M⁻¹ s⁻¹
T1.04 (anti-hu FAP/hu IL-12, hu IgG1 DANG (2 + 1)) (bispecific antibody, DVD-Ig form of the anti-FAP arm, knob-in-hole with the IL-12 arm) heavy: QVQLVQSGAEVKKPGASVKVSCKTSRYTFTEYTIHWVRQAPGQRLEWIGGINPNNGIPNYNQKFKGRVTITVDTSASTAYMELSSLRSEDTAVYYCARRRIAYGYDEGHAMDYWGQGTLVTVSSGGGGSGGGGSGGGGSQVQLVQSGAEVKKPGASVKVSCKTSRYTFTEYTIHWVRQAPGQRLEWIGGINPNNGIPNYNQKFKGRVTITVDTSASTAYMELSSLRSEDTAVYYCARRRIAYGYDEGHAMDYWGQGTLVTVSSASTKGPSVFPLAPSSKSTSGGTAALGCLVKDYFPEPVTVSWNSGALTSGVHTFPAVLQSSGLYSLSSVVTVPSSSLGTQTYICNVNHKPSNTKVDKKVEPKSCDKTHTCPPCPAPELLGGPSVFLFPPKPKDTLMISRTPEVTCVVVAVSHEDPEVKFNWYVDGVEVHNAKTKPREEQYGSTYRVVSVLTVLHQDWLNGKEYKCKVSNKALPAPIEKTISKAKGQPREPQVYTLPPSRDELTKNQVSLWCLVKGFYPSDIAVEWESNGQPENNYKTTPPVLDSDGSFFLYSKLTVDKSRWQQGNVFSCSVMHEALHNHYTQKSLSLSPGK light: not shown not shown | 0.0257 nM | 1.5e-05 s⁻¹ | 583000 M⁻¹ s⁻¹
T1.06 (anti-hu FAP/hu IL-12, hu IgG1 DANG (2 + 1, HC scFv)) (bispecific antibody, Anti-FAP scFv at the C-terminus of the heavy chain; knob-in-hole with the IL-12 arm) heavy: QVQLVQSGAEVKKPGASVKVSCKTSRYTFTEYTIHWVRQAPGQRLEWIGGINPNNGIPNYNQKFKGRVTITVDTSASTAYMELSSLRSEDTAVYYCARRRIAYGYDEGHAMDYWGQGTLVTVSSASTKGPSVFPLAPSSKSTSGGTAALGCLVKDYFPEPVTVSWNSGALTSGVHTFPAVLQSSGLYSLSSVVTVPSSSLGTQTYICNVNHKPSNTKVDKKVEPKSCDKTHTCPPCPAPELLGGPSVFLFPPKPKDTLMISRTPEVTCVVVAVSHEDPEVKFNWYVDGVEVHNAKTKPREEQYGSTYRVVSVLTVLHQDWLNGKEYKCKVSNKALPAPIEKTISKAKGQPREPQVYTLPPSRDELTKNQVSLWCLVKGFYPSDIAVEWESNGQPENNYKTTPPVLDSDGSFFLYSKLTVDKSRWQQGNVFSCSVMHEALHNHYTQKSLSLSPGKGGGGSGGGGSGGGGSQVQLVQSGAEVKKPGASVKVSCKTSRYTFTEYTIHWVRQAPGQRLEWIGGINPNNGIPNYNQKFKGRVTITVDTSASTAYMELSSLRSEDTAVYYCARRRIAYGYDEGHAMDYWGQGTLVTVSSGGGGSGGGGSGGGGSGGGGSDIVMTQSPDSLAVSLGERATINCKSSQSLLYSRNQKNYLAWYQQKPGQPPKLLIFWASTRESGVPDRFSGSGFGTDFTLTISSLQAEDVAVYYCQQYFSYPLTFGQGTKVEIK light: not shown not shown | 0.596 nM | 6.22e-05 s⁻¹ | 104000 M⁻¹ s⁻¹

Other lines, results leading:

Kd | koff | kon | Binder
0.0932 nM | 5.83e-05 s⁻¹ | 625000 M⁻¹ s⁻¹ | T1.05 (anti-hu FAP/hu IL-12 mut2, hu IgG1 DANG (2 + 1)) (bispecific antibody, DVD-Ig form of the anti-FAP arm, knob-in-hole with the IL-12 mut2 arm) heavy: QVQLVQSGAEVKKPGASVKVSCKTSRYTFTEYTIHWVRQAPGQRLEWIGGINPNNGIPNYNQKFKGRVTITVDTSASTAYMELSSLRSEDTAVYYCARRRIAYGYDEGHAMDYWGQGTLVTVSSGGGGSGGGGSGGGGSQVQLVQSGAEVKKPGASVKVSCKTSRYTFTEYTIHWVRQAPGQRLEWIGGINPNNGIPNYNQKFKGRVTITVDTSASTAYMELSSLRSEDTAVYYCARRRIAYGYDEGHAMDYWGQGTLVTVSSASTKGPSVFPLAPSSKSTSGGTAALGCLVKDYFPEPVTVSWNSGALTSGVHTFPAVLQSSGLYSLSSVVTVPSSSLGTQTYICNVNHKPSNTKVDKKVEPKSCDKTHTCPPCPAPELLGGPSVFLFPPKPKDTLMISRTPEVTCVVVAVSHEDPEVKFNWYVDGVEVHNAKTKPREEQYGSTYRVVSVLTVLHQDWLNGKEYKCKVSNKALPAPIEKTISKAKGQPREPQVYTLPPSRDELTKNQVSLWCLVKGFYPSDIAVEWESNGQPENNYKTTPPVLDSDGSFFLYSKLTVDKSRWQQGNVFSCSVMHEALHNHYTQKSLSLSPGK light: not shown not shown
0.128 nM | 7.64e-05 s⁻¹ | 597000 M⁻¹ s⁻¹ | T1.07 (anti-hu FAP/hu IL-12 mut2, hu IgG1 DANG (2 + 1, HC scFv)) (bispecific antibody, Anti-FAP scFv at the C-terminus of the heavy chain; knob-in-hole with the IL-12 mut2 arm) heavy: QVQLVQSGAEVKKPGASVKVSCKTSRYTFTEYTIHWVRQAPGQRLEWIGGINPNNGIPNYNQKFKGRVTITVDTSASTAYMELSSLRSEDTAVYYCARRRIAYGYDEGHAMDYWGQGTLVTVSSASTKGPSVFPLAPSSKSTSGGTAALGCLVKDYFPEPVTVSWNSGALTSGVHTFPAVLQSSGLYSLSSVVTVPSSSLGTQTYICNVNHKPSNTKVDKKVEPKSCDKTHTCPPCPAPELLGGPSVFLFPPKPKDTLMISRTPEVTCVVVAVSHEDPEVKFNWYVDGVEVHNAKTKPREEQYGSTYRVVSVLTVLHQDWLNGKEYKCKVSNKALPAPIEKTISKAKGQPREPQVYTLPPSRDELTKNQVSLWCLVKGFYPSDIAVEWESNGQPENNYKTTPPVLDSDGSFFLYSKLTVDKSRWQQGNVFSCSVMHEALHNHYTQKSLSLSPGKGGGGSGGGGSGGGGSQVQLVQSGAEVKKPGASVKVSCKTSRYTFTEYTIHWVRQAPGQRLEWIGGINPNNGIPNYNQKFKGRVTITVDTSASTAYMELSSLRSEDTAVYYCARRRIAYGYDEGHAMDYWGQGTLVTVSSGGGGSGGGGSGGGGSGGGGSDIVMTQSPDSLAVSLGERATINCKSSQSLLYSRNQKNYLAWYQQKPGQPPKLLIFWASTRESGVPDRFSGSGFGTDFTLTISSLQAEDVAVYYCQQYFSYPLTFGQGTKVEIK light: not shown not shown
